Experimental data from article PMC8119428, “LSD1-mediated demethylation of OCT4 safeguards pluripotent stem cells by maintaining the transcription of PORE-motif-containing genes”.

Target: OCT4 K222F (Homo sapiens, UniProt Q01860 1-360, K222F)
Assay: EMSA; homodimer; significantly increased vs WT and other variants; LightShift EMSA: 20 ul, 1.5 ug His-OCT4, 0.5 ug His-SOX2 where used, 50 nM biotin-dsDNA, 1 ul poly(dI-dC), 1x loading buffer (salt and pH not stated), 30 min, 25 C
Conditions: protein: recombinant; tags: His (pET28a); label: 5'-biotin on sense strand; blunt

OCT4 K222F, sequence (Q01860 whole entry K222F): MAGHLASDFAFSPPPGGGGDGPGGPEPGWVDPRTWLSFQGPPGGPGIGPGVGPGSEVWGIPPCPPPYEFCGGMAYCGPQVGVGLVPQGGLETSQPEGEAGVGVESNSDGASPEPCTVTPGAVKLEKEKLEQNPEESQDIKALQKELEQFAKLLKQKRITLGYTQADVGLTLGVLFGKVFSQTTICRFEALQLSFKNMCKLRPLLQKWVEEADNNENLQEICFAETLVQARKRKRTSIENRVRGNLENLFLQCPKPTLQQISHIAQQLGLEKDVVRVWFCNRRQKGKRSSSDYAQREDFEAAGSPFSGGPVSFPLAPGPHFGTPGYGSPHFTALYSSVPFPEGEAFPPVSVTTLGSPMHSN

B1: PORE probe (dsDNA)
DNA 1: TATACTAAGCAATTCTTCATTGATTTGAAATGCAAATTTGACTGGGCACCCTGTATCTT
DNA 2: AAGATACAGGGTGCCCAGTCAAATTTGCATTTCAAATCAATGAAGAATTGCTTAGTATA
B1: binds.
